Assay results taken from the nanobody polyreactivity screen of Harvey et al. (2022).

Assay: yeast display, Sf9 membrane polyspecificity reagent, FACS + sequencing; frameworks hold sequencing errors
How it was run: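 Using colony PCR, genes from sorted yeast display clones were amplified, then sequenced on MiSeq at 2 × 250 and filtered by CDR length. The clones had been stained with 10% biotinylated, detergent-solubilized Sf9 membrane reagent for 1 hour at 4 °C and sorted by FACS into low and high (top ~1%) gates on anti-HA and streptavidin fluorescence. Polyreactivity labels come from the gate of origin.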
In the case of “QVQLVESGGGLVQAGGSLRLSCAASGITFVFYAMGWYRQAPGKERELVAAISWSGGITYYADSVKGRFTISRDNAKNTVYLQMNSLKPEDTAVYYCAARISWEKYQAGYDYWGQGTQVTVSS”, the “polyreactivity (PSR sort gate)” value is reported as “low polyreactivity”.
With “QVQLVESGGGLVQAGGSLRLSCAASGIIFSGYVMGWYRQAPGKERELVAAIRWNGGNTYYADSVKGRFTISRDNAKNTVYLQMNSLKPEDTAVYYCAGRVRRPYSSLDYWGQGSQVTVSS” the “polyreactivity (PSR sort gate)” value was “high polyreactivity”.
For “QVQLVESGGGLVQAGGSLRLSCAASGRIILGYAMGWYRQAPGKERELVARITWSGGSTYYADSVKGRFTISRDNAKNTVSLQMNSLKPEDNAVYYCAKRTYYSYPDGYWGQGTQVTVSS”, the “polyreactivity (PSR sort gate)” value was “high polyreactivity”.
In the case of “QVQLVESVGGLVQAGGSLRLSCAASGSIFYWSAMGWYRQAPGKERELVAAISSGGSTNYADSVKGRFTISRDNAKNTVYLQMNSLKPEDTAVYYCAAGWDASYGYDYWGQGTQVTVSS”, the “polyreactivity (PSR sort gate)” value is reported as “low polyreactivity”.
For “QVQLVESGGGLVQAGVSLRLSCAASGIIFRGNAMGWYRQAPGKERELVASICRRGGSTYYADSVKGRFTISRDNAKNTVYLQMNSLKPEDTAVYYCNAYGSTYVYGPYDYWGQGTQVTVSS”, the “polyreactivity (PSR sort gate)” value was “high polyreactivity”.
In the case of “QVQLVESGGGLVQAGGSLRLSCAASRRIFYAYAMGWYRQAPGKEIELLATITGIGGSTYADSVKGRFTISRDNAKNTVNLQMNSLKPEDTAVYYCNAERGVYWGRYPYKYDYLGQGTQVTVSS”, the “polyreactivity (PSR sort gate)” value is reported as “low polyreactivity”.
For “QVQLVESGVGLVQAGGSLRLSCAASGNIFGVYAMGWYRQAPGKERELVATITTGGSTYYADSVKGRFTISRDNAKNTVYLQMNSLKPEDSAVYYCAADVGGGNYVYYGNDYDDGYWGQGTQVTVSS”, the “polyreactivity (PSR sort gate)” value was “low polyreactivity”.
In the case of “QVHLVESGGGLVQAGGSLRLSCAASGFTFTRYAMGWYRQAPGKERELVAAISFSGGSTYYADSVKGRFTISRDNAKNTVYLQMNSLKPEDTAVYYCAGRWSVSYQYWGQGTQVTVSS”, the “polyreactivity (PSR sort gate)” value is reported as “high polyreactivity”.
For “QVQLQESGGGLVQAGGTITLGYDMGWYRQAPGKEREFVAGIDTGAITYYADSVKGRFTNSRDNAKNTVYLQMNSLKPEDTAVYYCAAIQTHTYAHSYWGQGTQVTVSS”, the “polyreactivity (PSR sort gate)” value was “high polyreactivity”.
In the case of “QVQLVESGGGLVQAGGSLRVSCAASGLTFKINAMGWYRQEPGKERELVAAITWNGGRTYYADSVKGRFTISRDNAKNTVYLQMNSLKPEDTAVYYCAADGKYYHRRPGWPIYDYWGQGTQVTVSS”, the “polyreactivity (PSR sort gate)” value is reported as “high polyreactivity”.
For “QVQLVESGGGLVQAGGSLRLSCAASGFIFTYYALGWYRQAPGKERELVAAITIGGTTNYADSVKGRFTISRDNAKNTVYLQMNSLKPEDTAVYYCAAYFTIEDWYYNEAVRYYYWGQGTKVTVSS”, the “polyreactivity (PSR sort gate)” value was “high polyreactivity”.
In the case of “QVQLVESGGGLVQAGGSLRLSCAASGFIFDFYTMGWYRQAPGKERELVAAITNAGSTYYADSVKGRFTISRDNAMNTFYLHMNSLKPEDTAVYYCAAYYRSRHHGYDSWGQGTQVTVSS”, the “polyreactivity (PSR sort gate)” value is reported as “low polyreactivity”.
For “QVQLVESGGGLVQAGGSLRLSCAASGSTFLRYAMGWARQAPGKERELVARISGGGTTYYADSVKGRFTISRDNAKNTVYLQMNSLKPEDTAVYYCAARAIYWSRYDYWGQGTQVTVSS”, the “polyreactivity (PSR sort gate)” value was “high polyreactivity”.
In the case of “QVQLVESGGGLVQAGGRLRLSCAPSGIIFQQYAMGWYRQAPGKERELVAAISRGGTRTYYADSVKGRFTISRDNAKNTVYLLMNSLKPEDTAVDYCAADRGYFSYDYWGQGTQVTVSS”, the “polyreactivity (PSR sort gate)” value is reported as “high polyreactivity”.
With “QVQLVESGGGLVQAGGSLRLSCAASGRIFGRNTMGWYRQAPGKERELVAVISWRGGSTYYADSVKGRFTISRDNAKNTVYLQMNSLKPEDTAVYDCNPKYPFSRRGDYWGQGTQVTVSS” the “polyreactivity (PSR sort gate)” value was “high polyreactivity”.
With “QVQLVESGGGLVQAGGSLRLSCAASGRIFNGYPIGWYIQAPGKEREFVATISRSGGCTYYADSVKGRFTISRDNAKNTVYLQMISLKPEDTAVYYCAKTYPAKWEYDYWGQGTQVTVSS” the “polyreactivity (PSR sort gate)” value was “low polyreactivity”.
For “QVQLVESGGGLVQAGGSLRLSCAASGRTFSHNAMGWYRQAPGKERELVATISWNGGRTYYADSVKGRFTISRDNAKNTVYLQMNSLKPEDTAVYYCADDRIWVLYRTYFSKYGYWGQGTQVTVSS”, the “polyreactivity (PSR sort gate)” value was “high polyreactivity”.
For “QVKLVESGGGLVQAGGSLRLSCAASGNTFGGYAMGWYRQAPGKERELVAAISSSGGSTYYADSVKGRFTISRDNAKNTVYLQMNSLKPEDTAVYYCAAYGGFYGYWTMGYWGQGTQVTVSS”, the “polyreactivity (PSR sort gate)” value was “high polyreactivity”.
For “QVQLVESGGGLVQAGGSLRLSCAASGSTFYYYAMGWYRQATGKERELVAAISGRGGSTYYADSVKGRFTISRDNAKNTVYLQMNSLKPEDTAVYYCNKRRAAGGFPYDYWGQGTQVTVSS”, the “polyreactivity (PSR sort gate)” value was “high polyreactivity”.
With “QVQLVESGGGLVQAGGSLRLSCAASGRIFAHNAMGWYRQAPGKERELVAAISSSDGSTYYADSVKGRFTISRDNAKNTVYLQMNSLKPEDTAVYYCAARGSPSKHHWYDYWGQGTQVTVSS” the “polyreactivity (PSR sort gate)” value was “low polyreactivity”.
In the case of “QVQLVESGGGLVQAGGSLRLSCAASGFIYGGNPRGWYRQAPGKERELVAANRSGGSTYYADSVKGRFTISRDNAKNTVYLQMNILKPEDTAVYYCAVRLRYAYRARGNYWGQGTQVTVSS”, the “polyreactivity (PSR sort gate)” value is reported as “low polyreactivity”.
For “QVQLVESGGGLVQAGGSLRLSCAASGSIFSKYAMGWYRQAPGKERELVAAISWSGTSTYYADSVKGRFTISRDNAKNTVYLQMNSLKPEDTAVYYCAASSPRSLSLLGYWGQGTQVTVSS”, the “polyreactivity (PSR sort gate)” value was “low polyreactivity”.
In the case of “QVQLVESGGGLVQAGGSLRLSCAASGITFHRYDMVWYRQAPGKERELVADITWSGGSTYYADSVKVRFTISRDNAKNTVYLQMNSLKPEDTAVYYCAADASTYTYTPYDYWGQGTQVTVSS”, the “polyreactivity (PSR sort gate)” value is reported as “low polyreactivity”.
With “QVQLVDSGGCLVQAGGSLRLSCAASGFIFNFYAMGWYRQAPRQQREFVAAISTRGGSTYYADSVKGRFTISRDNAKNTVFLQMKSLKPEDTAVYYCAARRFWGSRRLDYWGQCTQVTVSS” the “polyreactivity (PSR sort gate)” value was “high polyreactivity”.
For “QVQLVESGGGLVQAGGRLRLSCAASGLTFTYYAMGWYRQAPGKERELVATISWSGGTTYADSVKGRFTISRDNAKNTVYLQMNSLKPEDTAVYYCAADHPLYRRYDYWGQGTQVTVSS”, the “polyreactivity (PSR sort gate)” value was “high polyreactivity”.
With “QVQLVESGGGLVQAGGSLRLSCAASGSIFNYYAMGWYRQAPGKEREFVAGITTSGGSTYYADSVKGRFTISRDNAKNTVCLQMNSLKPEDTAVYYCAAYDYISSTYFLDDYWGQGTQVTVSS” the “polyreactivity (PSR sort gate)” value was “low polyreactivity”.
In the case of “QVQLVESGGGLVQAGGSLRLSCAASGSIFSYNAMGWYRQAPGKERELVAAIDWSGGSTYYADSVKGRFTISRDNAKNTVYLQMNSLKPVDTAVYYCNAVGVFYYSYHYHQYDYWGQGTQVTVSS”, the “polyreactivity (PSR sort gate)” value is reported as “low polyreactivity”.
With “QVQLQESGAGLVQAGGSLRLICAASGNIFRGDYVGWYHQAPGKEREFVASITGGGNTNFADSVKGRYSISRDNAKKTVYLKMNSLKPEDTAVYYCAVFDAWLARLIFWGQGSQVTVSS” the “polyreactivity (PSR sort gate)” value was “high polyreactivity”.
For “QVQLVESGGGLVQAGGSLRLSCAASGFSFQLYPMGWYRQAPWKERELVSAISQSGDSTYYADSVKGRFTISRDNAKNTVYLQMNSQKPEDNAVYYFNAVNDGVVWSYPFDFDYWGQGTQVTVSS”, the “polyreactivity (PSR sort gate)” value was “low polyreactivity”.
In the case of “QVQLVESGGGLVQAGGSLRLSCAASGRIFGYYAMGWSRQAPGKERELVAAISSDGSTYYADSVKGRFTISRDNAENTVYLQMNSLKPEDTAVYYCAKEGRWDSYGYSAQPFYYWGQGTQVTVSS”, the “polyreactivity (PSR sort gate)” value is reported as “low polyreactivity”.
In the case of “QVQLVESGGGLVQAGGSLRLSCAASGGTCSFYTMGWYRQAPGKERELVAAISRSGGRTYYADSVKGRFTISRDNAQNTVYLQMNSLKPEDTAVYYCAAERFSNIYTTMGYWGQGTQVTVSS”, the “polyreactivity (PSR sort gate)” value is reported as “high polyreactivity”.
With “QVQLVESGGGLVQAGGSLRLSCAASGSIIRRYAMGWYRQAPGKERELVAAISSGGSTYYADSVKGRFTISRDNAKNTVYLEMNSLKPVDTAVYYCAAAQRVSWLFGYWGQGTQVTVSS” the “polyreactivity (PSR sort gate)” value was “high polyreactivity”.
For “QVQLVESGGGLVQAGGSLRLSCAASGSTFTYNTMGWYRQAPGKERELVAAISSGGSTYYADSVKGRFTISRDNAKNTVYLQMNSLKPEDTAVYYCAATAQKDSRYGSRYYYWGQGTQVTVSS”, the “polyreactivity (PSR sort gate)” value was “high polyreactivity”.
In the case of “QVQLVESGGGLVQAGGSLRLSCAASGRIFERNAMGWYRQAPGKERELVAAITYNGGRTYYADSVKGRFTISRDNAKNTVYLQMNSLKPEDTAVYYCNAQSRVTRSSYRGSPRYDYWGQGTQVTVSS”, the “polyreactivity (PSR sort gate)” value is reported as “low polyreactivity”.
In the case of “QVQLVESGGGLVQAGGSLRLSCAASGFTFGYYAMGWYRQAPGKERELVATIDRGGGTSYADSVKGRFTISRDNAKNTVYLQMNSLKPEDTAVYYCNRACYGAKARRYRSYWGQGTQVTVSS”, the “polyreactivity (PSR sort gate)” value is reported as “high polyreactivity”.
With “QVQLVESGGGLVQAGGSLRLSCAASGIIFRYYTMGWYRQAPGKERELVAAISWGGGSTYYADSVKGRFTISRDYAKNTVYLQMNSLKPEDTAVYYCAAEGLTYYNYREWLYYYWGQGTQVTVSS” the “polyreactivity (PSR sort gate)” value was “high polyreactivity”.
With “QVQLVESGGGLVQAGGSLRLSCAASGRTVWSNAMGWYRQAPGKEREFVASISRTGVNTYYADSVKGRFTISRDYAKNSVYLQMNSLKPEDTAVYYCNVYSARRGVGTLARYSEYDYWGQGTQVTVSS” the “polyreactivity (PSR sort gate)” value was “high polyreactivity”.
With “QVQLGDSGGGLVQAGGSLRLSCAASGSIFNKYAMGWYRQAPGKEREFVAPITQGGGRTYYADSVKGRFTISRDNAKNNVYLQMNSLKPEDTAVYYCIYNFNYPYYRYGYWGQGTQVTVSS” the “polyreactivity (PSR sort gate)” value was “high polyreactivity”.
With “QVQLVESGGGLVQAGGSLRISCAASGFTFSYNAMGWYRQAPGKERELVAGINVSSGGDTYADSVKGRFTISRDNAKNTVYLQMNSLKPEDTAVYYCAKDHYGDDTYGTPYDYDYWGQGTQVTVSS” the “polyreactivity (PSR sort gate)” value was “low polyreactivity”.
For “QVQLEESGGGLVQAGGSLRLSCAASGIIIRYYAMGWYRQAPRKERELVDSITARSGSTYYADSVKGRFSISRDYAKNTVYFQMNSLKPEDTAVYYCAKSGKPARYYYWGQGTQVTVSS”, the “polyreactivity (PSR sort gate)” value was “high polyreactivity”.
In the case of “QVQLVESGGGLVQAGGSLRLSCAASGRTSQEYAMGWYRQAPGKERELVAGITRRGGTTYYADSVKGRFTISRDNAKNTVYLQMNRLNPEDTAVYYCAKRYTHSFKYEYWGQCTQVTVSS”, the “polyreactivity (PSR sort gate)” value is reported as “high polyreactivity”.
